Source: US20220348647A1 (published 2022)

Columns and labels:
human CCL17 [1] = molecular target: T1, human CCL17 (human, UniProt Q92583 24-94); test: solution equilibrium affinity (MSD-SEA), TBST, 48 h at 4 °C
T1 construct: Biotinylated in the Fab ELISAs; also called huCCL17; Bt-huCCL17
T1 sequence: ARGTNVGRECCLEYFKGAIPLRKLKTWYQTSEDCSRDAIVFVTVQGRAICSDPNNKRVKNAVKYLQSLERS
Experimental: (§1) Equal volumes of the anti-hCCL17 mAbs at 40 pM or 200 pM were added to each chemokine dilution to obtain mixtures containing the serial dilution of chemokines starting at a final concentration of […] and a constant concentration (20 pM or 100 pM) of anti-CCL17 antibody. The mixtures were prepared in duplicate and incubated at 4° C. for 48 hours to reach equilibrium. The free antibody was detected using a SECTOR Imager 6000 (Meso Scale Discovery) instrument. The resulting binding curves were fitted to obtain the dissociation equilibrium constant (KD) using the GraphPad Prism software (v 5.01) using a 1:1 binding model to perform nonlinear least-square regression analysis of the data.

human CCL17 [2] = molecular target: T1, human CCL17; test: cell-based or functional assay
cyno CCL17 [3] = molecular target: T2, cyno CCL17 (Macaca fascicularis (cyno), UniProt Q8HYP9 24-94 (rhesus entry)); test: cell-based or functional assay
T2 sequence: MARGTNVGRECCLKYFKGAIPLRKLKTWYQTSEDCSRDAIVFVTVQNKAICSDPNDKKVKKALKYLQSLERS

cyno CCL17 [4] = molecular target: T2, cyno CCL17; test: solution equilibrium affinity (MSD-SEA), TBST, 48 h at 4 °C
Experimental: as §1

human CCL17 [5] = molecular target: T1, human CCL17; test: MSD-SEA; affinity for human CCL17 against that for cyno CCL17
Experimental: as §1

human CCL17 [6] = molecular target: T1, human CCL17; test: solution equilibrium affinity (MSD-SEA), IgG1
Experimental: as §1

cyno CCL17 [7] = molecular target: T2, cyno CCL17; test: solution equilibrium affinity (MSD-SEA), IgG1
Experimental: as §1

human CCL17 [8] = molecular target: T1, human CCL17; test: not stated in the legend (affinities by MSD-SEA in Examples 3 and 4)

Binder	Kd (human CCL17 [1])	IC50 (nM), calcium flux assay in CCRF-CEM cells, 10 ng/ml human CCL17 (human CCL17 [2])	IC50 (nM), calcium flux assay in CCRF-CEM cells, 5 ng/ml cyno CCL17 (cyno CCL17 [3])	Kd (cyno CCL17 [4])	Fold binding human/cyno CCL17 (human CCL17 [5])	Kd (human CCL17 [6])	Kd (cyno CCL17 [7])	Kd (human CCL17 [8])
C17F24 (parent) (antibody, V domains shown) VH: EVQLVQSGAEVKKPGESLKISCKGSGYSFTSYWIGWVRQMPGKGLEWMGIIDPSDSDTRYSPSFQGQVTISADKSISTAYLQWSSLKASDTAMYYCARVGPADVWDSFDYWGQGTLVTVSS VL: not shown	1 nM	–	–	–	–	–	–	–
C17B237 (antibody, V domains shown, Full IgG1, kappa) VH: EVQLVQSGAEVKKPGESLKISCKGSGYSFTSYWIGWVRQMPGKGLEWMGIIDPSDSDTRYSPSFQGQVTISADKSISTAYLQWSSLKASDTAMYYCARVGPADVWDSFDYWGQGTLVTVSS VL: not shown	0.657 nM	0.882 nM	0.549 nM	3.07 nM	4.7 fold	–	–	–
C17B295 (antibody, IgG1, V domains shown, Expressed as IgG1; Heavy chain D100bE (Kabat) paired with the light chain of C17B258) VH: EVQLVQSGAEVKKPGESLKISCKGSGYSFTSYWIGWVRQMPGKGLEWMGIIDPSDSDTRYSPSFQGQVTISADKSISTAYLQWSSLKASDTAMYYCARVGPADVWESFDYWGQGTLVTVSS VL: DIVMTQSPDSLAVSLGERATINCKSSQSVLLSFDNINKLAWYQQKPGQPPKLLIYDASTRESGVPDRFSGSGSGTDFTLTISSLQAEDVAVYYCQQFYSVPSTFGQGTKVEIK	–	–	–	–	171 fold	0.175 nM	29.9 nM	–
C17B260 (antibody, IgG1, V domains shown, Expressed as IgG1; Light chain N50G (Kabat) variant of C17B234) VH: EVQLVQSGAEVKKPGESLKISCKGSGYSFTSYWIGWVRQMPGKGLEWMGIIDPSDSDTRYSPSFQGQVTISADKSISTAYLQWSSLKASDTAMYYCARVGPADVWDSFDYWGQGTLVTVSS VL: DIVMTQSPDSLAVSLGERATINCKSSQSVLLSFDNINKLAWYQQKPGQPPKLLIYGASTRESGVPDRFSGSGSGTDFTLTISSLQAEDVAVYYCQQFYSVPSTFGQGTKVEIK	–	–	–	–	72.8 fold	0.0005 nM	0.0364 nM	–
C17B258 (antibody, IgG1, V domains shown, Expressed as IgG1; Light chain N50D (Kabat) variant of C17B234) VH: EVQLVQSGAEVKKPGESLKISCKGSGYSFTSYWIGWVRQMPGKGLEWMGIIDPSDSDTRYSPSFQGQVTISADKSISTAYLQWSSLKASDTAMYYCARVGPADVWDSFDYWGQGTLVTVSS VL: DIVMTQSPDSLAVSLGERATINCKSSQSVLLSFDNINKLAWYQQKPGQPPKLLIYDASTRESGVPDRFSGSGSGTDFTLTISSLQAEDVAVYYCQQFYSVPSTFGQGTKVEIK	–	–	–	–	416 fold	0.0001 nM	0.0416 nM	–
C17B235 (antibody, V domains shown, Full IgG1, kappa) VH: EVQLVQSGAEVKKPGESLKISCKGSGYSFTSYWIGWVRQMPGKGLEWMGIIDPSDSDTRYSPSFQGQVTISADKSISTAYLQWSSLKASDTAMYYCARVGPADVWDSFDYWGQGTLVTVSS VL: not shown	0.072 nM	0.558 nM	0.919 nM	9.5 nM	132 fold	–	–	≤ 100 nM
C17B257 (antibody, IgG1, V domains shown, Expressed as IgG1; Light chain N50A (Kabat) variant of C17B234) VH: EVQLVQSGAEVKKPGESLKISCKGSGYSFTSYWIGWVRQMPGKGLEWMGIIDPSDSDTRYSPSFQGQVTISADKSISTAYLQWSSLKASDTAMYYCARVGPADVWDSFDYWGQGTLVTVSS VL: DIVMTQSPDSLAVSLGERATINCKSSQSVLLSFDNINKLAWYQQKPGQPPKLLIYAASTRESGVPDRFSGSGSGTDFTLTISSLQAEDVAVYYCQQFYSVPSTFGQGTKVEIK	–	–	–	–	656 fold	0.0001 nM	0.0656 nM	–
C17B244 (antibody, V domains shown, Full IgG1, kappa) VH: EVQLVQSGAEVKKPGESLKISCKGSGYSFTSYWIGWVRQMPGKGLEWMGIIDPSDSDTRYSPSFQGQVTISADKSISTAYLQWSSLKASDTAMYYCARVGPADVWDSFDYWGQGTLVTVSS VL: DIVMTQSPDSLAVSLGERATINCKSSQSVLSSITNVNDLAWYQQKPGQPPKLLIYTASTRESGVPDRFSGSGSGTDFTLTISSLQAEDVAVYYCQQYYHDPFTFGQGTKVEIK	0.033 nM	–	0.311 nM	0.565 nM	17.1 fold	–	–	≤ 100 nM
C17B240 (antibody, V domains shown, Full IgG1, kappa) VH: EVQLVQSGAEVKKPGESLKISCKGSGYSFTSYWIGWVRQMPGKGLEWMGIIDPSDSDTRYSPSFQGQVTISADKSISTAYLQWSSLKASDTAMYYCARVGPADVWDSFDYWGQGTLVTVSS VL: DIVMTQSPDSLAVSLGERATINCKSSQSVLYSHVNYNALAWYQQKPGQPPKLLIYNASTRESGVPDRFSGSGSGTDFTLTISSLQAEDVAVYYCQQYYTLPATFGQGTKVEIK	0.083 nM	0.405 nM	0.308 nM	4.6 nM	55.4 fold	–	–	≤ 100 nM
C17B238 (antibody, V domains shown, Full IgG1, kappa) VH: EVQLVQSGAEVKKPGESLKISCKGSGYSFTSYWIGWVRQMPGKGLEWMGIIDPSDSDTRYSPSFQGQVTISADKSISTAYLQWSSLKASDTAMYYCARVGPADVWDSFDYWGQGTLVTVSS VL: DIVMTQSPDSLAVSLGERATINCKSSQSVLISAFNQNPLAWYQQKPGQPPKLLIYDASTRESGVPDRFSGSGSGTDFTLTISSLQAEDVAVYYCQQYQFIPFTFGQGTKVEIK	0.115 nM	0.387 nM	0.348 nM	1.46 nM	12.7 fold	–	–	–
C17B242 (antibody, V domains shown, Full IgG1, kappa) VH: EVQLVQSGAEVKKPGESLKISCKGSGYSFTSYWIGWVRQMPGKGLEWMGIIDPSDSDTRYSPSFQGQVTISADKSISTAYLQWSSLKASDTAMYYCARVGPADVWDSFDYWGQGTLVTVSS VL: DIVMTQSPDSLAVSLGERATINCKSSQSVLFSHDNLNTLAWYQQKPGQPPKLLIYHASTRESGVPDRFSGSGSGTDFTLTISSLQAEDVAVYYCQQYYAVPQTFGQGTKVEIK	0.167 nM	0.483 nM	0.34 nM	0.384 nM	2.3 fold	–	–	–
C17B263 (antibody, IgG1, V domains shown, Expressed as IgG1; Light chain N50T (Kabat) variant of C17B234) VH: EVQLVQSGAEVKKPGESLKISCKGSGYSFTSYWIGWVRQMPGKGLEWMGIIDPSDSDTRYSPSFQGQVTISADKSISTAYLQWSSLKASDTAMYYCARVGPADVWDSFDYWGQGTLVTVSS VL: DIVMTQSPDSLAVSLGERATINCKSSQSVLLSFDNINKLAWYQQKPGQPPKLLIYTASTRESGVPDRFSGSGSGTDFTLTISSLQAEDVAVYYCQQFYSVPSTFGQGTKVEIK	–	–	–	–	756 fold	0.0001 nM	0.0756 nM	–
C17B243 (antibody, V domains shown, Full IgG1, kappa) VH: EVQLVQSGAEVKKPGESLKISCKGSGYSFTSYWIGWVRQMPGKGLEWMGIIDPSDSDTRYSPSFQGQVTISADKSISTAYLQWSSLKASDTAMYYCARVGPADVWDSFDYWGQGTLVTVSS VL: DIVMTQSPDSLAVSLGERATINCKSSQSVLNSFDNKNDLAWYQQKPGQPPKLLIYEASTRESGVPDRFSGSGSGTDFTLTISSLQAEDVAVYYCQQHWQTPLTFGQGTKVEIK	0.028 nM	0.231 nM	0.31 nM	0.677 nM	24.2 fold	–	–	≤ 100 nM
C17B241 (antibody, V domains shown, Full IgG1, kappa) VH: EVQLVQSGAEVKKPGESLKISCKGSGYSFTSYWIGWVRQMPGKGLEWMGIIDPSDSDTRYSPSFQGQVTISADKSISTAYLQWSSLKASDTAMYYCARVGPADVWDSFDYWGQGTLVTVSS VL: DIVMTQSPDSLAVSLGERATINCKSSQSVLNSFTNNNALAWYQQKPGQPPKLLIYEASTRESGVPDRFSGSGSGTDFTLTISSLQAEDVAVYYCQQTNSIPLTFGQGTKVEIK	0.05 nM	0.456 nM	0.339 nM	0.583 nM	11.7 fold	–	–	≤ 100 nM
C17B239 (antibody, V domains shown, Full IgG1, kappa) VH: EVQLVQSGAEVKKPGESLKISCKGSGYSFTSYWIGWVRQMPGKGLEWMGIIDPSDSDTRYSPSFQGQVTISADKSISTAYLQWSSLKASDTAMYYCARVGPADVWDSFDYWGQGTLVTVSS VL: DIVMTQSPDSLAVSLGERATINCKSSQSVLSSFTNTNTLAWYQQKPGQPPKLLIYHASTRESGVPDRFSGSGSGTDFTLTISSLQAEDVAVYYCQQYLIYPSTFGQGTKVEIK	0.092 nM	0.427 nM	0.43 nM	0.63 nM	6.8 fold	–	–	≤ 100 nM
